Measurements as given in paper PMC5889621 (Proceedings of the National Academy of Sciences of the …, 2018).
Values joined by “and” are separate entries in the source; they are usually repeats but may differ in a detail not shown here. Identical values can stand only once.

T1: LMAN1/ERGIC53 (endogenous) (human (endogenous in 293A)), P49257
T1 chain: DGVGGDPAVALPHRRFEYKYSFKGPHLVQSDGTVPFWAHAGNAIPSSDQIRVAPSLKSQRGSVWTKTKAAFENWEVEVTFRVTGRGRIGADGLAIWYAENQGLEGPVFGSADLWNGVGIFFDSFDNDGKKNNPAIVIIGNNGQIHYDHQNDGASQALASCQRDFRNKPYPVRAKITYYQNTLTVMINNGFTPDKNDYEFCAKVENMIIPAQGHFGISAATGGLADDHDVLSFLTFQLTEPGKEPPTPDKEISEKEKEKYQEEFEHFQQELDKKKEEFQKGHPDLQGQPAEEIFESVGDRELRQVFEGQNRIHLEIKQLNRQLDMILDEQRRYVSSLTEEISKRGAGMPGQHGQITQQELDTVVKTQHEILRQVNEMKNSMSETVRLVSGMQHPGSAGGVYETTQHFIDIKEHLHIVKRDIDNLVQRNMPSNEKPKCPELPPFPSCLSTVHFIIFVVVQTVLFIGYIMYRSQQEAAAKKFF


Key:
[1] = target: T1, LMAN1/ERGIC53 (endogenous) (human …); test: SDS/PAGE without reducing agent and immunoblot; conditions: remark: other sources report otherwise
[2] = target: the molecule itself; test: SDS/PAGE without reducing agent and immunoblot

| Binder | stoichiometry N [1] | stoichiometry N [2] |
| --- | --- | --- |
| LMAN1/ERGIC53 (endogenous), P49257 31-510 (natural protein) DGVGGDPAVALPHRRFEYKYSFKGPHLVQSDGTVPFWAHAGNAIPSSDQIRVAPSLKSQRGSVWTKTKAAFENWEVEVTFRVTGRGRIGADGLAIWYAENQGLEGPVFGSADLWNGVGIFFDSFDNDGKKNNPAIVIIGNNGQIHYDHQNDGASQALASCQRDFRNKPYPVRAKITYYQNTLTVMINNGFTPDKNDYEFCAKVENMIIPAQGHFGISAATGGLADDHDVLSFLTFQLTEPGKEPPTPDKEISEKEKEKYQEEFEHFQQELDKKKEEFQKGHPDLQGQPAEEIFESVGDRELRQVFEGQNRIHLEIKQLNRQLDMILDEQRRYVSSLTEEISKRGAGMPGQHGQITQQELDTVVKTQHEILRQVNEMKNSMSETVRLVSGMQHPGSAGGVYETTQHFIDIKEHLHIVKRDIDNLVQRNMPSNEKPKCPELPPFPSCLSTVHFIIFVVVQTVLFIGYIMYRSQQEAAAKKFF | 2 and 6 | – |
| Myc-LMAN1 C475A (natural protein, UniProt P49257 31-510, looked up) DGVGGDPAVALPHRRFEYKYSFKGPHLVQSDGTVPFWAHAGNAIPSSDQIRVAPSLKSQRGSVWTKTKAAFENWEVEVTFRVTGRGRIGADGLAIWYAENQGLEGPVFGSADLWNGVGIFFDSFDNDGKKNNPAIVIIGNNGQIHYDHQNDGASQALASCQRDFRNKPYPVRAKITYYQNTLTVMINNGFTPDKNDYEFCAKVENMIIPAQGHFGISAATGGLADDHDVLSFLTFQLTEPGKEPPTPDKEISEKEKEKYQEEFEHFQQELDKKKEEFQKGHPDLQGQPAEEIFESVGDRELRQVFEGQNRIHLEIKQLNRQLDMILDEQRRYVSSLTEEISKRGAGMPGQHGQITQQELDTVVKTQHEILRQVNEMKNSMSETVRLVSGMQHPGSAGGVYETTQHFIDIKEHLHIVKRDIDNLVQRNMPSNEKPKCPELPPFPSALSTVHFIIFVVVQTVLFIGYIMYRSQQEAAAKKFF | – | 2 |
| Myc-LMAN1 C466A C475A double mutant (natural protein, UniProt P49257 31-510, looked up) DGVGGDPAVALPHRRFEYKYSFKGPHLVQSDGTVPFWAHAGNAIPSSDQIRVAPSLKSQRGSVWTKTKAAFENWEVEVTFRVTGRGRIGADGLAIWYAENQGLEGPVFGSADLWNGVGIFFDSFDNDGKKNNPAIVIIGNNGQIHYDHQNDGASQALASCQRDFRNKPYPVRAKITYYQNTLTVMINNGFTPDKNDYEFCAKVENMIIPAQGHFGISAATGGLADDHDVLSFLTFQLTEPGKEPPTPDKEISEKEKEKYQEEFEHFQQELDKKKEEFQKGHPDLQGQPAEEIFESVGDRELRQVFEGQNRIHLEIKQLNRQLDMILDEQRRYVSSLTEEISKRGAGMPGQHGQITQQELDTVVKTQHEILRQVNEMKNSMSETVRLVSGMQHPGSAGGVYETTQHFIDIKEHLHIVKRDIDNLVQRNMPSNEKPKAPELPPFPSALSTVHFIIFVVVQTVLFIGYIMYRSQQEAAAKKFF | – | 2 |
| Myc-LMAN1 C466A (natural protein, UniProt P49257 31-510, looked up) DGVGGDPAVALPHRRFEYKYSFKGPHLVQSDGTVPFWAHAGNAIPSSDQIRVAPSLKSQRGSVWTKTKAAFENWEVEVTFRVTGRGRIGADGLAIWYAENQGLEGPVFGSADLWNGVGIFFDSFDNDGKKNNPAIVIIGNNGQIHYDHQNDGASQALASCQRDFRNKPYPVRAKITYYQNTLTVMINNGFTPDKNDYEFCAKVENMIIPAQGHFGISAATGGLADDHDVLSFLTFQLTEPGKEPPTPDKEISEKEKEKYQEEFEHFQQELDKKKEEFQKGHPDLQGQPAEEIFESVGDRELRQVFEGQNRIHLEIKQLNRQLDMILDEQRRYVSSLTEEISKRGAGMPGQHGQITQQELDTVVKTQHEILRQVNEMKNSMSETVRLVSGMQHPGSAGGVYETTQHFIDIKEHLHIVKRDIDNLVQRNMPSNEKPKAPELPPFPSCLSTVHFIIFVVVQTVLFIGYIMYRSQQEAAAKKFF | – | 2 |
